Measured values: publication PMC3919030

Columns and labels:
[1] = target: Vps4p (Saccharomyces cerevisiae) (UniProt P52917); settings: cited from earlier work
[2] = target: Acidianus hospitalis Vps4 (AhosVps4, wild type, full length) (Acidianus hospitalis); assay: SEC

Sequence of Vps4p (Saccharomyces cerevisiae) (P52917 whole entry): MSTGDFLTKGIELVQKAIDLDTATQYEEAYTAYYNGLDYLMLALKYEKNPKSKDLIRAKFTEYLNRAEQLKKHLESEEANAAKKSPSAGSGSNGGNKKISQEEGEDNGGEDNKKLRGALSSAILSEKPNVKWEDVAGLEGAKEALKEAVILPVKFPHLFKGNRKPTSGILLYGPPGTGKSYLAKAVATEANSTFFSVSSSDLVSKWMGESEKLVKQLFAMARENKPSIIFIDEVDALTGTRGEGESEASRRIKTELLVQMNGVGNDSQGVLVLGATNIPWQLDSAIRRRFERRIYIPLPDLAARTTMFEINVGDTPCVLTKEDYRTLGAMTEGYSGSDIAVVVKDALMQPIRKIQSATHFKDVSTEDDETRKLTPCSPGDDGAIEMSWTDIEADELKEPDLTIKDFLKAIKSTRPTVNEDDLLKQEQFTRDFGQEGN
Sequence of Vta1p (Q06263 whole entry): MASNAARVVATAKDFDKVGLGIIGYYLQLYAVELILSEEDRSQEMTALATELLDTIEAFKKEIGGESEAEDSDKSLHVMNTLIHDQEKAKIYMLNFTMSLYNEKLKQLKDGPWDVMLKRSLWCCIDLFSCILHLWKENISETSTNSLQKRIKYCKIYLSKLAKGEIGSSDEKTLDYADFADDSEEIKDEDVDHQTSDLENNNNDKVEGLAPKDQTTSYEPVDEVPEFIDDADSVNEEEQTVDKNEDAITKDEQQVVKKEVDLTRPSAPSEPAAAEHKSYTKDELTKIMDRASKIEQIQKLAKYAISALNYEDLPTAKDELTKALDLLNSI

Vta1p (from UniProt Q06263)
Kd [1]: 17 µM

Acidianus hospitalis Vps4 (AhosVps4, wild type, full length) (enzyme)
stoichiometry N [2]: 6
